In the supplement of paper PMC7877785:
± gives the uncertainty stated by the source.

Assay: self-splicing fitness, log relative to wild type (ln ratio); higher = more splicing; Tetrahymena group I intron in knt gene, E. coli kanamycin selection, DiMSum; sequences stand for … in CUCUCU…GGAGGGAAAAGUUAUCAGGCAUGCACCUGGUAGCUAGUCUUUAAACCAAUAGAUUGCAUCGGUUUAAAAGGCAAGACCGUCAAAUUGCGGGAAAGGGGUCAACAGCCGUUCAGUACCAAGUCUCAGGGGAAACUUUGAGAUGGCCUUGCAAAGGGUAUGGUAAUAAGCUGACGGACAUGGUCCUAACCACGCAGCCAAGUCCUAAGUCAACAGAUCUUCUGUUGAUAUGGAUGCAGUUCACAGACUAAAUGUCGGUCGGGGAAGAUGUAUUCUUCUCAUAAGAUAUAGUCGGACCUCUCCUUAAUGGGAGCUAGCGGAUGAAGUGAUGCAACACUGGAGCCGCUGGGAACUAAUUUGUAUGCGAAAGUAUAUUGAUUAGUUUUGGAGUACUCGUGGUCG
In short: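 Six replicate transformations of E. coli BL21(DE3) with a pET-22b(+) library were grown overnight at 37°C or 30°C. The library randomised all eight P1ex-region intron nucleotides, the intron lying in the knt kanamycin-resistance gene, and plates were LB agar with or without 25 μg/mL kanamycin plus 100 μg/mL carbenicillin, 50 μM IPTG and 0.2% rhamnose. Pooled colonies were amplicon-sequenced on an Illumina HiSeq 2500, and fitness is the DiMSum error-weighted combination of wild-type-normalised replicate fold changes, kanamycin versus none.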

| Sequence | self-splicing fitness (ln) (30 °C) | self-splicing fitness (ln) (37 °C) |
| --- | --- | --- |
| UGGCAGCAAUAUUACGUCCG | -0.782 ± 0.095 | -0.304 ± 0.13 |
| UGGCAGCAAUAUUACGUCUA | -0.425 ± 0.091 | 0.66 ± 0.11 |
| UGGCAGCAAUAUUACGUGAU | -1.46 ± 0.13 | -1.29 ± 0.17 |
| UGGCAGCAAUAUUACGUGCA | -0.0165 ± 0.1 | -0.0321 ± 0.14 |
| UGGCAGCAAUAUUACGUGCU | -2.71 ± 0.14 | -1.79 ± 0.17 |
| UGGCAGCAAUAUUACGUGGA | -2.38 ± 0.17 | -1.02 ± 0.13 |
| UGGCAGCAAUAUUACGUUGA | -1.43 ± 0.13 | -0.707 ± 0.14 |
| UGGGAGCAAUAUUACGAAGA | -2.99 ± 0.47 | -2.68 ± 0.33 |
| UGGGAGCAAUAUUACGACAU | -3.84 ± 0.039 | -2.9 ± 0.05 |
| UGGGAGCAAUAUUACGAGAG | -3.13 ± 0.32 | -2.85 ± 0.36 |
| UGGGAGCAAUAUUACGAUGG | -2.64 ± 0.18 | -2.77 ± 0.48 |
| UGGGAGCAAUAUUACGAUUU | -3.39 ± 0.3 |  |
| UGGGAGCAAUAUUACGCAAA |  | -2.43 ± 0.45 |
| UGGGAGCAAUAUUACGCGUG | -2.51 ± 0.12 | -1.67 ± 0.12 |
| UGGGAGCAAUAUUACGCUAA | -2.74 ± 0.29 | -1.93 ± 0.31 |
| UGGGAGCAAUAUUACGCUGG | -1.91 ± 0.29 | -1.55 ± 0.35 |
| UGGGAGCAAUAUUACGGACA | -1.7 ± 0.14 | -0.535 ± 0.13 |
| UGGGAGCAAUAUUACGGAUU | -4.21 ± 0.31 | -3.06 ± 0.26 |
| UGGGAGCAAUAUUACGGCAC |  | -0.43 ± 0.35 |
| UGGGAGCAAUAUUACGGCCG |  | -1.37 ± 0.28 |
| UGGGAGCAAUAUUACGGCGA | -1.73 ± 0.36 | -1.23 ± 0.28 |
| UGGGAGCAAUAUUACGUGGU | -2.97 ± 0.35 | -1.56 ± 0.26 |
| UGGGAGCAAUAUUACGUUGU | -3.01 ± 0.23 | -2.2 ± 0.34 |
| UGGUAGCAAUAUUACGAAAA | -2.14 ± 0.19 | -0.612 ± 0.17 |
| UGGUAGCAAUAUUACGAACC | -2.54 ± 0.29 | -1.93 ± 0.28 |
| UGGUAGCAAUAUUACGAAGA | -1.45 ± 0.4 | -2.3 ± 0.49 |
| UGGUAGCAAUAUUACGAAUA | -0.911 ± 0.17 | -1.17 ± 0.16 |

| Sequence | self-splicing fitness (ln) (30 °C) | self-splicing fitness (ln) (37 °C) |
| --- | --- | --- |
| UGGUAGCAAUAUUACGAAUC | -2.14 ± 0.32 |  |
| UGGUAGCAAUAUUACGACCG | -1.22 ± 0.22 | -0.981 ± 0.27 |
| UGGUAGCAAUAUUACGAGGG |  | -3.44 ± 0.33 |
| UGGUAGCAAUAUUACGAUCU | -0.554 ± 0.13 | 0.576 ± 0.18 |
| UGGUAGCAAUAUUACGAUUG | -0.422 ± 0.05 | 0.168 ± 0.073 |
| UGGUAGCAAUAUUACGCAAU | -2.59 ± 0.24 | -2.56 ± 0.33 |
| UGGUAGCAAUAUUACGCAGG | -2.77 ± 0.3 | -2.82 ± 0.48 |
| UGGUAGCAAUAUUACGCAUC |  | -3.68 ± 0.46 |
| UGGUAGCAAUAUUACGCCGA | -1.43 ± 0.45 | -0.492 ± 0.32 |
| UGGUAGCAAUAUUACGCCGU | -1.56 ± 0.27 | -1.42 ± 0.36 |
| UGGUAGCAAUAUUACGCUGG | -2.08 ± 0.2 | -2.52 ± 0.2 |
| UGGUAGCAAUAUUACGCUUU | -1.85 ± 0.12 | -1.46 ± 0.12 |
| UGGUAGCAAUAUUACGGAAC |  | -0.88 ± 0.24 |
| UGGUAGCAAUAUUACGGAGU | -2.76 ± 0.27 |  |
| UGGUAGCAAUAUUACGGCCG | -1.62 ± 0.29 | -0.342 ± 0.32 |
| UGGUAGCAAUAUUACGGGAC |  | -2.89 ± 0.27 |
| UGGUAGCAAUAUUACGGGUA | -2.28 ± 0.14 | -0.719 ± 0.12 |
| UGGUAGCAAUAUUACGGUAC | -3.95 ± 0.4 | -1.43 ± 0.27 |
| UGGUAGCAAUAUUACGUAAG | -1.53 ± 0.11 | -0.776 ± 0.16 |
| UGGUAGCAAUAUUACGUACG | -1.02 ± 0.19 | -0.203 ± 0.23 |
| UGGUAGCAAUAUUACGUAUU | -3.07 ± 0.14 | -1.84 ± 0.17 |
| UGGUAGCAAUAUUACGUCCA | -0.714 ± 0.24 | -0.608 ± 0.3 |
| UGGUAGCAAUAUUACGUGAG | -1.05 ± 0.092 | 0.0891 ± 0.11 |
| UGGUAGCAAUAUUACGUGUG | -1.29 ± 0.071 | -0.469 ± 0.082 |
| UGGUAGCAAUAUUACGUGUU | -3.24 ± 0.28 | -1.82 ± 0.29 |
| UGGUAGCAAUAUUACGUUCG | -0.221 ± 0.12 | -0.719 ± 0.14 |
| UGGUAGCAAUAUUACGUUGA | -0.502 ± 0.17 | -0.66 ± 0.15 |

| Sequence | self-splicing fitness (ln) (30 °C) | self-splicing fitness (ln) (37 °C) |
| --- | --- | --- |
| UGGUAGCAAUAUUACGUUGU | -4.52 ± 0.36 | -2.86 ± 0.26 |
| UGUAAGCAAUAUUACGAGGC | -1.16 ± 0.26 | -1.17 ± 0.41 |
| UGUAAGCAAUAUUACGAGGG | -3.68 ± 0.27 | -2.14 ± 0.3 |
| UGUAAGCAAUAUUACGAGUC |  | -2.47 ± 0.33 |
| UGUAAGCAAUAUUACGAUUA | -0.52 ± 0.076 | 0.447 ± 0.089 |
| UGUAAGCAAUAUUACGCGAA | -2.68 ± 0.14 | -1.33 ± 0.17 |
| UGUAAGCAAUAUUACGCGUA | -0.832 ± 0.14 | -0.754 ± 0.15 |
| UGUAAGCAAUAUUACGCUAU | -3.7 ± 0.32 | -2.24 ± 0.29 |
| UGUAAGCAAUAUUACGCUCG | -1.1 ± 0.11 | -0.752 ± 0.13 |
| UGUAAGCAAUAUUACGGAAG | -1.91 ± 0.13 | -2.38 ± 0.21 |
| UGUAAGCAAUAUUACGGGAU | -3.28 ± 0.32 | -2.46 ± 0.29 |
| UGUAAGCAAUAUUACGGGGA |  | -1.19 ± 0.25 |
| UGUAAGCAAUAUUACGGUAC | -1.81 ± 0.45 |  |
| UGUAAGCAAUAUUACGGUUA | -0.297 ± 0.091 | -0.0116 ± 0.098 |
| UGUAAGCAAUAUUACGUGCG | -0.869 ± 0.075 | -0.337 ± 0.1 |
| UGUAAGCAAUAUUACGUUCA | -0.719 ± 0.1 | -0.118 ± 0.14 |
| UGUCAGCAAUAUUACGAAAG | -1.72 ± 0.14 | -1.21 ± 0.17 |
| UGUCAGCAAUAUUACGAAAU | -2.21 ± 0.19 | -1.18 ± 0.19 |
| UGUCAGCAAUAUUACGAAUU | -0.864 ± 0.13 | -1.04 ± 0.13 |
| UGUCAGCAAUAUUACGACAC | -3.09 ± 0.47 |  |
| UGUCAGCAAUAUUACGACAG | -1.62 ± 0.16 | -0.615 ± 0.14 |
| UGUCAGCAAUAUUACGACCC | -0.106 ± 0.22 | 0.358 ± 0.26 |
| UGUCAGCAAUAUUACGACCU | -0.114 ± 0.17 | 0.566 ± 0.17 |
| UGUCAGCAAUAUUACGACGC | -2.44 ± 0.22 | -1.61 ± 0.22 |
| UGUCAGCAAUAUUACGACUG | -0.284 ± 0.1 | 0.525 ± 0.13 |
| UGUCAGCAAUAUUACGAGAG | -3.21 ± 0.23 | -2.58 ± 0.2 |
